In the supplement of paper PMC5998384:

Columns and labels:
[1] = test system: HeLa Kyoto; assay: melting temperature (median over replicates), in situ; higher = more thermally stable
[2] = test system: HeLa Kyoto; assay: thermal stability score vs G1/S (z-score of summed log2 fold changes over temperatures); higher = more thermally stable than in G1/S
[3] = cell cycle stage: early G1 (4.5 h after nocodazole release)
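For melting temperature (median over replicates), in situ in this document: HeLa Kyoto cells synchronized by double thymidine or nocodazole block, proteins quantified by TMT10plex mass spectrometry, three independent biological replicates.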
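For thermal stability score vs G1/S (z-score of summed log2 fold changes over temperatures) in this document: synchronized HeLa Kyoto cells, proteins quantified by TMT10plex mass spectrometry, three biological replicates, mitosis taken 0.5 h after nocodazole release, G1/S directly after double thymidine block.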

Chain of ARF1 (chain, as listed by the source): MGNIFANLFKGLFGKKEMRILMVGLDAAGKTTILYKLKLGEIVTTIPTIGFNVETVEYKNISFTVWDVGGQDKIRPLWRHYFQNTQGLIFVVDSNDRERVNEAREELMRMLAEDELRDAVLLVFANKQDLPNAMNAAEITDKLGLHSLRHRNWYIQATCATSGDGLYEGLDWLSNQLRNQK

| Substance | melting temperature ([1]; cell cycle stage: G1/S) [°C] | melting temperature ([1]; cell cycle stage: mitosis) [°C] | thermal stability score [2, 3] | thermal stability score ([2]; cell cycle stage: mitosis) |
| --- | --- | --- | --- | --- |
| ARF1 | 59.6 | 57.8 | – | – |
| KIF1B | 50.5 | 52.2 | – | – |
| MAAGQNGHEEWVGSAYLFVESSLDKVVLSDAYAHPQQKVAVYRALQAALAESGGSPDVLQMLKIHRSDPQLIVQLRFCGRQPCGRFLRAYREGALRAALQRSLAAALAQHSVPLQLELRAGAERLDALLADEERCLSCILAQQPDRLRDEELAELEDALRNLKCGSGARGGDGEVASAPLQPPVPSLSEVKPPPPPPPAQTFLFQGQPVVNRPLSLKDQQTFARSVGLKWRKVGRSLQRGCRALRDPALDSLAYEYEREGLYEQAFQLLRRFVQAEGRRATLQRLVEALEENELTSLAEDLLGLTDPNGGLA [TRADD] | 49.9 | – | – | – |
| MAGPAAAFRRLGALSGAAALGFASYGAHGAQFPDAYGKELFDKANKHHFLHSLALLGVPHCRKPLWAGLLLASGTTLFCTSFYYQALSGDPSIQTLAPAGGTLLLLGWLALAL [TMEM256] | – | 56.6 | – | – |
| MAGSEPRSGTNSPPPPFSDWGRLEAAILSGWKTFWQSVSKERVARTTSREEVDEAASTLTRLPIDVQLYILSFLSPHDLCQLGSTNHYWNETVRDPILWRYFLLRDLPSWSSVDWKSLPDLEILKKPISEVTDGAFFDYMAVYRMCCPYTRRASKSSRPMYGAVTSFLHSLIIQNEPRFAMFGPGLEELNTSLVLSLMSSEELCPTAGLPQRQIDGIGSGVNFQLNNQHKFNILILYSTTRKERDRAREEHTSAVNKMFSRHNEGDDQQGSRYSVIPQIQKVCEVVDGFIYVANAEAHKRHEWQDEFSHIMAMTDPAFGSSGRPLLVLSCISQGDVKRMPCFYLAHELHLNLLNHPWLVQDTEAETLTGFLNGIEWILEEVESKRAR [FBXO4] | – | 52 | – | – |
| MGSNSSRIGDLPKNEYLKKLSGTESISENDPFWNQLLSFSFPAPTSSSELKLLEEATISVCRSLVENNPRTGNLGALIKVFLSRTKELKLSAECQNHIFIWQTHNALFIICCLLKVFICQMSEEELQLHFTYEEKSPGNYSSDSEDLLEELLCCLMQLITDIPLLDITYEISVEAISTMVVFLSCQLFHKEVLRQSISHKYLMRGPCLPYTSKLVKTLLYNFIRQEKPPPPGAHVFPQQSDGGGLLYGLASGVATGLWTVFTLGGVGSKAAASPELSSPLANQSLLLLLVLANLTDASDAPNPYRQAIMSFKNTQDSSPFPSSIPHAFQINFNSLYTALCEQQTSDQATLLLYTLLHQNSNIRTYMLARTDMENLVLPILEILYHVEERNSHHVYMALIILLILTEDDGFNRSIHEVILKNITWYSERVLTEISLGSLLILVVIRTIQYNMTRTRDKYLHTNCLAALANMSAQFRSLHQYAAQRIISLFSLLSKKHNKVLEQATQSLRGSLSSNDVPLPDYAQDLNVIEEVIRMMLEIINSCLTNSLHHNPNLVYALLYKRDLFEQFRTHPSFQDIMQNIDLVISFFSSRLLQAGAELSVERVLEIIKQGVVALPKDRLKKFPELKFKYVEEEQPEEFFIPYVWSLVYNSAVGLYWNPQDIQLFTMDSD [DYM] | – | – | 0.139 | 0.823 |
| MHTLVFLSTRQVLQCQPAACQALPLLPRELFPLLFKVAFMDKKTVVLRELVHTWPFPLLSFQQLLQECAHCSRALLQERPSTESMQAVILGLTARLHTSEPGASTQPLCRKHALRVLDMTGLLDDGVEQDPGTMSMWDCTAAVARTCIAQQQGGAAEPGPAPIPVEVRVDLRVNRASYAFLREALRSSVGSPLRLCCRDLRAEDLPMRNTVALLQLLDAGCLRRVDLRFNNLGLRGLSVIIPHVARFQHLASLRLHYVHGDSRQPSVDGEDNFRYFLAQMGRFTCLRELSMGSSLLSGRLDQLLSTLQSPLESLELAFCALLPEDLRFLARSPHAAHLKKLDLSGNDLSGSQLAPFQGLLQASAATLLHLELTECQLADTQLLATLPILTQCASLRYLGLYGNPLSMAGLKELLRDSVAQAELRTVVHPFPVDCYEGLPWPPPASVLLEASINEEKFARVEAELHQLLLASGRAHVLWTTDIYGRLAADYFSL [LRRC14] | – | – | -0.753 | -0.00668 |
| MIEVVAELSRGPVFLAGEALECVVTVTNPLPPTATSASSEALAWASAQIHCQFHASESRVALPPPDSSQPDVQPDSQTVFLPHRGERGQCILSTPPKILFCDLRLDPGESKSYSYSEVLPIEGPPSFRGQSVKYVYKLTIGCQRVNSPITLLRVPLRVLVLTGLQDVRFPQDEAVAPSSPFLEEDEGGKKDSWLAELAGERLMAATSCRSLHLYNISDGRGKVGTFGIFKSVYRLGEDVVGTLNLGEGTVACLQFSVSLQTEERVQPEYQRRRGAGGVPSVSHVTHARHQESCLHTTRTSFSLPIPLSSTPGFCTAIVSLKWRLHFEFVTSREPGLVLLPPVEQPEPTTWTGPEQVPVDTFSWDLPIKVLPTSPTLASYAAPGPSTSTITI [RGP1] | – | – | 0.0205 | -1.18 |
| MLCLCLYVPVIGEAQTEFQYFESKGLPAELKSIFKLSVFIPSQEFSTYRQWKQKIVQAGDKDLDGQLDFEEFVHYLQDHEKKLRLVFKSLDKKNDGRIDAQEIMQSLRDLGVKISEQQAEKILKSMDKNGTMTIDWNEWRDYHLLHPVENIPEIILYWKHSTIFDVGENLTVPDEFTVEERQTGMWWRHLVAGGGAGAVSRTCTAPLDRLKVLMQVHASRSNNMGIVGGFTQMIREGGARSLWRGNGINVLKIAPESAIKFMAYEQIKRLVGSDQETLRIHERLVAGSLAGAIAQSSIYPMEVLKTRMALRKTGQYSGMLDCARRILAREGVAAFYKGYVPNMLGIIPYAGIDLAVYETLKNAWLQHYAVNSADPGVFVLLACGTMSSTCGQLASYPLALVRTRMQAQASIEGAPEVTMSSLFKHILRTEGAFGLYRGLAPNFMKVIPAVSISYVVYENLKITLGVQSR [SLC25A25] | – | – | -0.983 | -0.000686 |
